B1: TPR t1 (parent)
chain: GACCAAUCUGCCCUCAGAGCUCGAGAACAUCUUCGGAUGCAGAGGAGGCAGGCUUCGGUGGCGCGAUAGCGCCAACGUCCUCAACCUCCAAUGCAUCCCACCACAUGAUGAUGCCUGAAGAGCCUUGGUUUUUUG

Variants of: B1
Assay: polymerase ribozyme fitness, log enrichment relative to wild type (log ratio); higher = more active; in vitro selection for triplet polymerase activity
In short: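 For each subunit of a heterodimeric triplet polymerase ribozyme, a mutant library was built by PCR and transcribed, then taken through a single in vitro selection round in triplicate. Selection involved annealing to a biotinylated primer, the partner subunit and triplets, incubation frozen at −7 °C, gel excision of extended constructs, capture on streptavidin beads and RT-PCR. Genotypes were retained after Illumina sequencing of inputs and outputs only with ≥10 input reads and ≥1 read in each output. Fitness is defined as the logarithm of a genotype's enrichment relative to wild-type enrichment, using inverse-variance-weighted averages across replicates, with the logarithm taken to base 2.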

**Q.** Which “polymerase ribozyme fitness (log ratio)” value does the source give for GACCAAUCUGCCCUCUGAGCUCGAGAACAUCUUCGGAUGAAGAGGAGGCAGGCCUCGGUAGCGCGAUAGCGCCAACGUCCUCAACCUCCAAUGCAUCCCACCACAUGAUGAUGCCUGAAGAGCCUUGGUUUUUUG [A16U C40A U54C G60A] here?
**A.** -2.69

**Q.** Which “polymerase ribozyme fitness (log ratio)” value does the source give for GACCAAUCUGCCCUCUGAGCUCGAGAACAUCUUCGGAUGCAGAGGAGGCAGGAUUCGGUGGCGCGCUAGCGCCAACGUCCUCAACCUCCAAUGCAUCCCACCACAUGAUGAUGCCUGAAGAGCCUUGGUUUUUUG [A16U C53A A66C] here?
**A.** -2.72

**Q.** Which “polymerase ribozyme fitness (log ratio)” value does the source give for GACCAAUCUGCCCUCUGAGCUCGAGAACAUUUUCGGAUGCAGAGGAGGCAGGCUUCGGUGGCGCGAUAGCGCCAACGUCCUCAACCUCCAAUGCAUCCCACCACAUGAUGAUGCCUGAAGAGCCUUGGUUUUUUG [A16U C31U] here?
**A.** -4.77

**Q.** With GACCAAUCUGCCCUCUGAGCUCAAGAACAUCUUCGGAUGCAGAGGAGGCAGGCUUCGGUAGCGCGAUAGCGCCAACGUCCUCAACCUCCAAUGCAUCCCACCACAUGAUGGUGCCUGAAGAUCCUUGGUUUUUUG [A16U G23A G60A A111G G122U] as the variant, how does the “polymerase ribozyme fitness (log ratio)” value read?
**A.** -7.12

**Q.** Which “polymerase ribozyme fitness (log ratio)” value does the source give for GACCAAUCUGCCCUCUGAGCUCGAGAACAUCUUCGGAUGCAGAGGAGGCAGGCUUCGGUGGCGCGAUAGCGCUAACGUCCUCUACCUCCAAUGCCUCCCACCACAUGAUGAUGCCUGAAGAGCCUUGGUUUUUUG [A16U C73U A83U A95C] here?
**A.** -2.3

**Q.** With GACCAAUCUGCCCUCUGAGCUCGAGAACAUCUUCGGAUGCAGAGGAGGCAGGGUUCGGUGGCGCGAUAGCGCCAACGUCCUCAACCUCCAAUGCAUCCCACCACAUGAUGAUGCCUGAAGAGCCUUGGUUUUUUG [A16U C53G] as the variant, how does the “polymerase ribozyme fitness (log ratio)” value read?
**A.** -1.82

**Q.** For GACCAAUCUGCCCUCUGAGCUCGAGAACAUCUUCGCAUGCAGAGGAGGCAGGCUUCGGUGGAGCGAUAGCGCCAACGUCCUCAACCUCCAAUGCAUCCCACCACAUGAUGAUGCCUGAAGCGCCUUGGUUUUUUG [A16U G36C C62A A121C], which “polymerase ribozyme fitness (log ratio)” value is on record?
**A.** -1.88

**Q.** Which “polymerase ribozyme fitness (log ratio)” value does the source give for GACCAAUCUGCCCUCUGAGCUCGAGAACAUCUUCGGAUGCAGAGGAGGCAGGCUUCGGUGGCGCGAUAGAGCCUACGUCCUCAACCUCCAAUGCAUCCCACCACAUGAUGAUGCCUGAAGAGCCUUGGUUUUUUG [A16U C70A A74U] here?
**A.** -4.08

**Q.** For GACCAAUCUGCCCUCUGAGCUCGAGAACAUCUUCGGAUGCAGAGGAGGCAGGCUUCGGUGGCGCGAUAGGGCCAACGUUCUCAACCUCCAAUGUAUCCCACCACAUGAUGAUGCCUGAAGAGCCUUGGUUUUUUG [A16U C70G C79U C94U], which “polymerase ribozyme fitness (log ratio)” value is on record?
**A.** -2.44

**Q.** Which “polymerase ribozyme fitness (log ratio)” value does the source give for GACCAAUCUGCCCUCUGAGCUCGAGAACAUCUUCGGAUGCAAAGGAGGCAGGCUUCGGUGGCGCGAUAGCGCCAACGUCCUCAACCUCCAAUGCAUCCCACCACAUGAUGAUGCCUGAAGAGCCUUGGUUUUUUG [A16U G42A] here?
**A.** -3.84

**Q.** Which “polymerase ribozyme fitness (log ratio)” value does the source give for GACCAAUCUGCCCUCUGAGCUUGAGAACAUCUUCGGAUGCAGAGGAGGCAGGCUUCGGUGGCGCGAUAGCGCCAACGUCCUCAACCUCCAAUGCAUCCCACCACAUGAUGAUGCCUGAAGAGCAUUGGUUUUUUG [A16U C22U C124A] here?
**A.** -2.87

**Q.** Which “polymerase ribozyme fitness (log ratio)” value does the source give for GACCAAUCUGCCCUCUGAGCUCGAGAACAUCUUCGGAUGCAGAGGAGGCAGGGUUCGGCGGCGCGAUAGCGCCAACGUCCUCAACCUCCAAUGCAGCCCACCACAUGAUGAAGCCUGAAGAGCCUUGCUUUUUUG [A16U C53G U59C U96G U112A G128C] here?
**A.** -3.81

**Q.** Which “polymerase ribozyme fitness (log ratio)” value does the source give for GACCAAUCUGCCCUCUGAGCUCGAGAAUAUCUUCGGAUGCAGAGGAGGCAGGCUUCGGUGGCGCGAUAGCGCCAACGUCCUCAACCUCCAAUGCAUCCCACCACAUGAUGAUGCCUGAAUAGCCUUGGUUUUUUG [A16U C28U G120U] here?
**A.** -3.52

**Q.** With GACCAAUCUGCCCUCUGAGCUCGAGAACAUCUUCGGAUGAAGAGGAGGCAGGCUUCGGUGGCGCGAUAGCGCCAACGUCCUCAACCUCCAAUGCAUCCCUCCACAUGAUGAUGCCUGAAGAGCCUUGGUUUUUUG [A16U C40A A100U] as the variant, how does the “polymerase ribozyme fitness (log ratio)” value read?
**A.** -3.86

**Q.** For GACCAAUCUGCCCUCUGAGCUCGAGAACAUCUUCGGAUGCAGAGGAGGCAGGCUUUGGUGGCGCGAUAGCGCCAACGUCCUCAACCUCCAAUGCAUCCCACCACAUGAUGAUGCCUGAAGAGCCUUGGUUUUUUG [A16U C56U], which “polymerase ribozyme fitness (log ratio)” value is on record?
**A.** -1.86

**Q.** With GACCAAUCUGCCCUCUGAGCUCGAGAACAUCUUCGGAUGCAGAGGAGGCAGGCUUCGGUGGCGCGAUAGCGCCAACGUCCUCAACCUCGAAUGCAUCCCACCACAUGAUGAUGCCUGAAGAGGCUUGGUUUUUUG [A16U C89G C123G] as the variant, how does the “polymerase ribozyme fitness (log ratio)” value read?
**A.** -1.67

**Q.** For GACCAAUCUGCCCUCUGAGCUCGAGAACAUCUUCGGAUGCAGAGGAGGCAGGCUUCGGUGGCGCGAUAGCGCCAACGUCCUCAACCUCCAAUGUAUCCCAUCACAUGAUGAUGCCCGAAGAGCCUUGUUUUAUUG [A16U C94U C101U U116C G128U U132A], which “polymerase ribozyme fitness (log ratio)” value is on record?
**A.** -5.42

**Q.** With GACCAAUCUGCCCUCUAAGCUCGAGAACAUCUUCGGAUGCAGAGGAGGUAGGCUUCUGUGGCGCGAUAGCGCCAACGUCCUCAACCUCCUAUGCAUCCCACCACAUGAUGAUGCCUGAAGAGCCUUGGUUUUUUG [A16U G17A C49U G57U A90U] as the variant, how does the “polymerase ribozyme fitness (log ratio)” value read?
**A.** -5.5

**Q.** Which “polymerase ribozyme fitness (log ratio)” value does the source give for GACCAAUCUGCCCUCUGAGCUCGAGAACAUCUUCGGAUGUAGAGGAGGCAGGCUUCGGUGGCGCGAUAGCGCCAACGUCCUUAACCUCCAAUGCAUCCCACCACAUGAUGAUGCCUGAAGAGCCUUGGUUUUUUG [A16U C40U C82U] here?
**A.** -2.7

**Q.** With GACCAAUCUGCCCUCUGAGCUCGAGAACAUCUUCGGAUGCAGAGGAGGCAGGCUUGGGUGGCUCGAUAGCGCCAACGUCCUCAACCUCCAAUGCAUCCCAUCACAUGAUGAUGCCUGAAGAGCCUUGGUUUUUUG [A16U C56G G63U C101U] as the variant, how does the “polymerase ribozyme fitness (log ratio)” value read?
**A.** -4.93

**Q.** Which “polymerase ribozyme fitness (log ratio)” value does the source give for GACCAAUCUGCCCUCUGAGCUCGAGAACAUCUUCGGAUGCAGAGGAGGCAGGCUUCGGUGGCGCGAUAGCGACAACGUCCUCAACCUCCAAUGCAUCCCACCACAUGAUGAUGCCUGAAGAGCCUUGGUUCUUUG [A16U C72A U131C] here?
**A.** -1.73
